Patent publication US20260232759A1, “PEPTIDES THAT INHIBIT INFECTION BY SARS-COV-2, THE VIRUS THAT CAUSES COVID-19 DISEASE” (Wisconsin Alumni Research Foundation, priority 2021, published 2026)
No end group written: not given here.

B1: α/β-SARS2 HRC QE-6 (peptide)
peptide: DISQINASVVNIEYEIKKLEEVAXKLEESLIDLQELGSGSGC
modifications: not fully specified (C-terminus); also: α/β-peptide, β-residue positions not given here, alias: peg4 chol conjugate
B2: α/β-SARS2 HRC QE-7 (peptide)
peptide: DISQINASVVNIEYEIXKLEEVAXKLEESLIDLQELGSGSGC
modifications: not fully specified (C-terminus); also: α/β-peptide, β-residue positions not given here, alias: peg4 chol conjugate
B3: α/β-SARS2 HRC QE-8 (peptide)
peptide: DISQINASVVNIEYEIXKLEEVAXKLEESLIDLQELGSGSGC
modifications: not fully specified (C-terminus); also: α/β-peptide, β-residue positions not given here, alias: peg4 chol conjugate
B4: α/β-SARS2 HRC QE-5 (peptide)
peptide: DISQINASVVNIEYEIXKLEEVAKKLEESLIDLQELGSGSGC
modifications: not fully specified (C-terminus); also: α/β-peptide, β-residue positions not given here, alias: peg4 chol conjugate
B5: α/β-SARS2 HRC QE-15 (peptide)
peptide: DISQINASVVNIEYEIXKLEEVAXKLEESLIDLQELGSGSGC
modifications: not fully specified (C-terminus); also: α/β-peptide, β-residue positions not given here
B6: α/β-SARS2 HRC QE-17 (peptide)
peptide: DISQINASVVNIEYEIXKLEEVAXKLEESLIDLQELGSGSGC
modifications: not fully specified (C-terminus); also: α/β-peptide, β-residue positions not given here

What follows are binders tested against SARS-CoV-2 Spike protein (SARS-CoV-2), P0DTC2 (assay: cell-based or functional assay).
B1 showed an inhibition of S-mediated cell-cell fusion (β-Gal complementation), IC50 of 20 nM and an inhibition of S-mediated cell-cell fusion (β-Gal complementation), IC90 of 100 nM. Binder B2 has an inhibition of S-mediated cell-cell fusion (β-Gal complementation), IC50 of 20 nM and an inhibition of S-mediated cell-cell fusion (β-Gal complementation), IC90 of 100 nM. In the case of B3, the inhibition of S-mediated cell-cell fusion (β-Gal complementation), IC50 is reported as 100 nM. With B4 the inhibition of S-mediated cell-cell fusion (β-Gal complementation), IC50 was 1000 nM.

Target: SARS-CoV-2 Spike protein (SARS-CoV-2), P0DTC2
Assay: cell-based or functional assay
Remark: another data set of the same source
B5 was tested, and the inhibition of S-mediated cell-cell fusion (β-Gal complementation), IC50 was 50 nM. In the case of B2, the inhibition of S-mediated cell-cell fusion (β-Gal complementation), IC50 is reported as 10 nM. With B6 the inhibition of S-mediated cell-cell fusion (β-Gal complementation), IC50 was 10 nM.
